What was measured:
purified protein [1] = substrate: O=P(O)(O)OC[C@@H](O)[C@@H](O)[C@@H](O)CO; assay: purified protein; conditions: 50 mM Tris-HCl pH 7.5, 1 mM MgCl2, 25 °C
purified protein [2] = substrate: O=P(O)(O)OC[C@H](O)[C@H](O)[C@H](O)CO; assay: purified protein; conditions: 50 mM Tris-HCl pH 7.5, 1 mM MgCl2, 25 °C

B1: EFI-501083; putative 5-amino-6-(5-phospho-D-ribitylamino) uracil phosphatase (Bacteroides thetaiotaomicron VPI-5482) (protein)
chain: MIKNIVFDFGGVIVDIDRDKAVQAFIKLGLADADTRLDKYHQTGIFQELEEGKLSADEFRKQLGDLCGRELTMEETKQAWLGFFNEVDLRKLDYILGLRKSYHVYLLSNTNPFVMSWACSPEFSSEGKPLNDYCDKLYLSYQLGHTKPAPEIFDFMIKDSHVIPSETLFVDDGSSNIHIGKELGFETFQPENGADWRQELTVILNS
Purified protein [1]
  Km: 1080 ± 140 µM
  kcat: 1.5 ± 0.1 s⁻¹
  kcat/Km: 1400 M⁻¹ s⁻¹
Purified protein [2]
  Km: 1030 ± 180 µM
  kcat: 1.8 ± 0.1 s⁻¹
  kcat/Km: 1700 M⁻¹ s⁻¹
